The values below come from US20250027068.

Positions count from the first letter of the chain named.

B1: PRT-307 (protein)
chain: MQITSVWTKGVTPLTPEQFRKNNEDVIHAPYLAHQGWYDITKAFDGKDNLLCGAATAGNMLHWWFDQNKTEIEAYLSKHPEKQKIIFNNQELFDLKAAIDTKDSQTNSQLFNYFRDKAFPNLSARQLGVMPDLVLDMFINGYYLNVGKTQSTDVNRPYQDKDKRGGIFDAVFTRGDQTTLLTARHDLKNKGLNDISTIIKQELTEGRALALSHTYANVSISHVINLWGADFNAEGNLEAIYVTDSDANASIGMKKYFVGRNAHGHVAISAKKIEGENIGAQVLGLFTLSSGKDIWQKLS
B2: PRT-315 (protein)
chain: B1 chain with K21E, N112D, G147F, N236E, A249P
B3: PRT-268 (protein)
chain: MVTSVWTKGVTPPTDFIYGEDVLHAPYKAGQGWYDITKLFNGKDDLLCGAATAGNMLHWWFDQNKEQIENYLKKHPEKQKINFNGEQMFDVKEAIDTKDSQLDSKLFDYFKEKAFPNLSTKHLGVFPDHVIDMFINGYRLSLLNHGPTPVKRGSKDPRGGIFDAVFTRGDQSKLLTNRHDLKNKTLKEISDLIKQELTEGKALGISHTYANGRINHVINLWGADFDAEGNLEAIYVTDSDSNPSIGMKKYFVGVNSSGKVAISAKEIEEDNIGAQVLGLFTLSTGQDIWNQTN
B4: PRT-244 (protein)
chain: MVTSVWTKGVTPPANFTQGEDVFHAPYVANQGWYDITKTFNGKDDLLCGAATAGNMLHWWFDQNKDQIKRYLEEHPEKQKINFNGEQMFDVKEAIDTKNHQLDSKLFEYFLEKAFPNLSTKHLGVFPDHVIDMFINGYRLSLLNHGPTPVKEGSKDPRGGIFDAVFTRGDQSKLLTSRHDFKEKNLKEISDLIKKELTEGKALGLSHTYANVRINHVINLWGADFDSNGNLKAIAVTDSDSNASIGMKKYFVGVNSSGKVAISAKEIKEDNIGAQVLGLFTLSTGQDSWNQTN
B5: PRT-275 (protein)
chain: MVTSVWTKGVTPPTDFIYGEDVLHAPYKAGQGWYDITKLFNGKDNLLCGAATAGNMLHWWFDQNKEQIENYLKKHPEKQKIIFNNQELFDLKAAIDTKDSQLDSKLFDYFKEKAFPNLSTKHLGVFPDHVIDMFINGYRLSLLNHGPTPVKRGSKDKRGGIFDAVFTRGVQSKLLTNRHDLKNKTLKEISDLIKQELTEGKALGISHTYANGRINHVINLWGADFDAEGNLEAIYVTDSDTNPSIGMKKYFVGVNSSGKVAISAKEIEEDNIGAQVLGLFTLSTGQDIWNQTN
B6: PRT-276 (protein)
chain: B5 chain with L39T, D108E, K111L, G212V, Y235A, P243A
B7: PRT-283 (protein)
chain: MVTSVWTKGVTPPAKFTQGEDVFHAPYDANQGWYDITKTFNGKDDLLCGAATAGNMLHWWFDQNKEKIEAYLKKHPDKQKIMFGDQELLDVRKVINTKGDQTNSELFNYFRDKAFPNLSARRIGVMPDLVLDMFINGYYLNVYKTQTTDVNRTYQEKDRRGGIFDAVFTRGDQSKLLTSRHDFKEKNLKEISDLIKKELTEGKALGLSHTYANVRISHVINLWGADFDSNGNLKAIYVTDSDSNASIGMKKYFVGVNSAGKVAISAKEIKEDNIGAQVLGLFTLSTGQDSWNQTN
B8: PRT-323 (protein)
chain: MTITSVWTKGVTPPTPEDFRENNEDVLHAPYVANQGWYDITKTFDGKDNLLCGAATAGNMLHWWFDQNKEEIERYLKKHPEKQKIIFNNQEWFDVKAAIDTKDSQTNSKLFNYFRDKAFPNLSARQLGVMPDLVLDMFINGYYLNLPKTQSTDVNRPYQDKDKRGGIFDAVFTRGDQTTLLTARHDLKNKGLNEISDLIKQELTEGKALALSHTYANVRINHVINLWGADFDAEGNLIAIYVTDSDANASIGMKKYAVGVNANGKVAISAKKIEGDNIGAQVLGLFTLSTGQDIWQKLS
B9: PRT-331 (protein)
chain: B8 chain with W92L, N112D, N121G, M130F, P147G, D176V, A257F, V260R, I294Q
B10: PRT-251 (protein)
chain: MVTSVWTKGVTPPTNFTYGEDVLHAPYVANQGWYDITKTFNGKDDLLCGAATAGNMLHWWFDQNKEQIENYLKKHPEKQKINFNGEQMFDVKEAIDTKDSQLDSKLFEYFLEKAFPNLSTKHLGVFPDHVIDMFINGYRLSLLNHGPTPVKRGSKDPRGGIFDAVFTRGDQSKLLTNRHDFKEKTLKEISDLIKQELTEGKALGISHTYANVRINHVINLWGADFDAEGNLEAIAVTDSDSNASIGMKKYFVGVNSSGKVAISAKEIEEDNIGAQVLGLFTLSTGQDIWNQTN
B11: PRT-259 (protein)
chain: B10 chain with D45N, M88L, L111K, P157K, D170V, A235Y, S241T
B12: PRT-252 (protein)
chain: B10 chain with T39L, V212G
B13: PRT-260 (protein)
chain: B10 chain with D45N, M88L, E108D, L111K, P157K, D170V, A235Y, S241T, A243P
B14: PRT-267 (protein)
chain: B3 chain with L39T, G212V
B15: PRT-291 (protein)
chain: MVTSVWTKGVTPPADFTQGEDVFHAPYVANQGWYDITKTFNGKDDLLCGAATAGNMLHWWFDQNKEYIEAYLKKHPEKQKIMFGDQELLDVRKAINTKGSQKNSELFNYFRDKAFPNLSARRLGVMPDLVLDMFINGYYLNVTKTQTTDVNRTYQEKDKRGGIFDAVFTRGDQSKLLTSRHDFKEKGLKEISDLIKQELTEGKALGLSHTYANVRLNHVINLWGADFDSDGNLKAIYVTDSDSNASIGMKKYFVGVNSSGKVAISAKEIKEDNIGAQVLGLFTLSTGQDIWNQTN
B16: PRT-299 (protein)
chain: B15 chain with A14T, T17I, Q18K, V28K, N30G, L216I, N217G

This series deals with pooled human IgG (human IgG1,2,3 and 4).
For the protein B1, the Enzyme Activity Endpoint Assay: Fab′2 came to 215 ng/µL, the Enzyme Activity Endpoint Assay: Fc was 290 ng/µL, the Enzyme Activity Endpoint Assay: IgG was found to be 138 ng/µL and the Enzyme Activity Endpoint Assay: scIgG was determined as 614 ng/µL.

B2 returned an Enzyme Activity Endpoint Assay: Fab′2 of 981 ng/µL, an Enzyme Activity Endpoint Assay: Fc of 408 ng/µL, an Enzyme Activity Endpoint Assay: IgG of 0 ng/µL and an Enzyme Activity Endpoint Assay: scIgG of 0 ng/µL.

In the case of B3, the Enzyme Activity Endpoint Assay: Fab′2 was 429 ng/µL, the Enzyme Activity Endpoint Assay: Fc turned out to be 325 ng/µL, the Enzyme Activity Endpoint Assay: IgG turned out to be 90 ng/µL and the Enzyme Activity Endpoint Assay: scIgG came to 282 ng/µL.

Consider B4, for which the Enzyme Activity Endpoint Assay: Fab′2 was determined as 998 ng/µL, the Enzyme Activity Endpoint Assay: Fc was 429 ng/µL, the Enzyme Activity Endpoint Assay: IgG came out at 0 ng/µL and the Enzyme Activity Endpoint Assay: scIgG was 0 ng/µL.

For B5, the Enzyme Activity Endpoint Assay: Fab′2 was found to be 169 ng/µL, the Enzyme Activity Endpoint Assay: Fc was determined as 257 ng/µL, the Enzyme Activity Endpoint Assay: IgG came to 97 ng/µL and the Enzyme Activity Endpoint Assay: scIgG came out at 589 ng/µL.

Take B6: the Enzyme Activity Endpoint Assay: Fab′2 worked out at 912 ng/µL, the Enzyme Activity Endpoint Assay: Fc amounted to 383 ng/µL, the Enzyme Activity Endpoint Assay: IgG worked out at 0 ng/µL and the Enzyme Activity Endpoint Assay: scIgG came out at 0 ng/µL.

For B7, the Enzyme Activity Endpoint Assay: Fab′2 was determined as 380 ng/µL, the Enzyme Activity Endpoint Assay: Fc stood at 271 ng/µL, the Enzyme Activity Endpoint Assay: IgG came to 186 ng/µL and the Enzyme Activity Endpoint Assay: scIgG came out at 91 ng/µL.

For B8, the Enzyme Activity Endpoint Assay: Fab′2 was 130 ng/µL, the Enzyme Activity Endpoint Assay: Fc worked out at 256 ng/µL, the Enzyme Activity Endpoint Assay: IgG came to 235 ng/µL and the Enzyme Activity Endpoint Assay: scIgG came to 743 ng/µL.

B9 returned an Enzyme Activity Endpoint Assay: Fab′2 of 954 ng/µL, an Enzyme Activity Endpoint Assay: Fc of 398 ng/µL, an Enzyme Activity Endpoint Assay: IgG of 0 ng/µL and an Enzyme Activity Endpoint Assay: scIgG of 0 ng/µL.

B10 came in with an Enzyme Activity Endpoint Assay: Fab′2 of 1070 ng/µL, an Enzyme Activity Endpoint Assay: Fc of 444 ng/µL, an Enzyme Activity Endpoint Assay: IgG of 0 ng/µL and an Enzyme Activity Endpoint Assay: scIgG of 0 ng/µL.

Protein B11 came in with an Enzyme Activity Endpoint Assay: Fab′2 of 1100 ng/µL, an Enzyme Activity Endpoint Assay: Fc of 453 ng/µL, an Enzyme Activity Endpoint Assay: IgG of 0 ng/µL and an Enzyme Activity Endpoint Assay: scIgG of 0 ng/µL.

B12 had an Enzyme Activity Endpoint Assay: Fab′2 of 634 ng/µL, an Enzyme Activity Endpoint Assay: Fc of 365 ng/µL, an Enzyme Activity Endpoint Assay: IgG of 56 ng/µL and an Enzyme Activity Endpoint Assay: scIgG of 0 ng/µL.

For B13, the Enzyme Activity Endpoint Assay: Fab′2 was 793 ng/µL, the Enzyme Activity Endpoint Assay: Fc is 354 ng/µL, the Enzyme Activity Endpoint Assay: IgG worked out at 0 ng/µL and the Enzyme Activity Endpoint Assay: scIgG was 0 ng/µL.

In turn, B14 yielded an Enzyme Activity Endpoint Assay: Fab′2 of 1090 ng/µL, an Enzyme Activity Endpoint Assay: Fc of 438 ng/µL, an Enzyme Activity Endpoint Assay: IgG of 0 ng/µL and an Enzyme Activity Endpoint Assay: scIgG of 0 ng/µL.

Protein B15 gave an Enzyme Activity Endpoint Assay: Fab′2 of 1020 ng/µL, an Enzyme Activity Endpoint Assay: Fc of 420 ng/µL, an Enzyme Activity Endpoint Assay: IgG of 0 ng/µL and an Enzyme Activity Endpoint Assay: scIgG of 0 ng/µL.

Protein B16 came in with an Enzyme Activity Endpoint Assay: Fab′2 of 549 ng/µL, an Enzyme Activity Endpoint Assay: Fc of 378 ng/µL, an Enzyme Activity Endpoint Assay: IgG of 368 ng/µL and an Enzyme Activity Endpoint Assay: scIgG of 0 ng/µL.
